Assay results from paper PMC9482650, “Quantitative fragmentomics allow affinity mapping of interactomes” (Nature Communications, 2022).

T1: LNX2_2, Q8N448
T1 sequence (Q8N448 334-432, limits assumed, looked up): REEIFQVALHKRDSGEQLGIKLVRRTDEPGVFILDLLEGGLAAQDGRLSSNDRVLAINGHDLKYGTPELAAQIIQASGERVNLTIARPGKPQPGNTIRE

T2: APBA1_2, Q02410
T2 sequence (Q02410 742-832, limits assumed, looked up): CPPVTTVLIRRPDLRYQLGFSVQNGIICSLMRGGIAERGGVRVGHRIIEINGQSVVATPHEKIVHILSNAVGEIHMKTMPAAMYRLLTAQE

T3: DLG3_2, Q92796
T3 sequence (Q92796 221-321, limits assumed, looked up): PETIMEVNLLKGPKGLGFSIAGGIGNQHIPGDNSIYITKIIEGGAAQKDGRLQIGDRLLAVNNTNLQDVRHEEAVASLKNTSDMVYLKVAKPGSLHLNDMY

T4: SNTB1, Q13884
T4 sequence (Q13884 107-205, limits assumed, looked up): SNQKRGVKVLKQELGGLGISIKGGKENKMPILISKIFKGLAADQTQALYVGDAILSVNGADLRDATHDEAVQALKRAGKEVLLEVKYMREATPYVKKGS

T5: MPP2, Q14168
T5 sequence (Q14168 180-250, limits assumed, looked up): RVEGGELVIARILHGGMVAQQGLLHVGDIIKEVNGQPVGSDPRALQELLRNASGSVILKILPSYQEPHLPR

T6: APBA1_1, Q02410
T6 sequence (Q02410 651-752, limits assumed, looked up): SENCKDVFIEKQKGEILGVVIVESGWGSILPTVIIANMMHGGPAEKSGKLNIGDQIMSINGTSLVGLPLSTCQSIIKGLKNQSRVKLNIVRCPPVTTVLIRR

T7: GRIP1_2, Q9Y3R0
T7 sequence (Q9Y3R0 145-248, limits assumed, looked up): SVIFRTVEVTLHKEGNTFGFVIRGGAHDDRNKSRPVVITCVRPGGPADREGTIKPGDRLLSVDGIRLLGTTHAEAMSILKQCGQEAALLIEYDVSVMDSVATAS

T8: DLG3_1, Q92796
T8 sequence (Q92796 125-227, limits assumed, looked up): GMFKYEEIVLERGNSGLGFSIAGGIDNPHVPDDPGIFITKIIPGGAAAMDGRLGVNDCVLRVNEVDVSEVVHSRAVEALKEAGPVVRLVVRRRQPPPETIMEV

T9: MPDZ_5, O75970
T9 sequence (O75970 695-796, limits assumed, looked up): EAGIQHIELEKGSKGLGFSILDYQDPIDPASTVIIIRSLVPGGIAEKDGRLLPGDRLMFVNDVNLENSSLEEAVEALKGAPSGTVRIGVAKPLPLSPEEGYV

T10: RADIL, Q96JH8
T10 sequence (Q96JH8 971-1071, limits assumed, looked up): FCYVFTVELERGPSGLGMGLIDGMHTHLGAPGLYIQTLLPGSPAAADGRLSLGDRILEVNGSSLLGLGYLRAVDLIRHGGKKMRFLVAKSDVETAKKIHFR

T11: APBA3_1, O96018
T11 sequence (O96018 389-490, limits assumed, looked up): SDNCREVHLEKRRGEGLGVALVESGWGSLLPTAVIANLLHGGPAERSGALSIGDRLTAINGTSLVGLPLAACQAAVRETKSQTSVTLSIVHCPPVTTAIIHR

T12: TX1BP3, O14907
T12 sequence (O14907 10-122, limits assumed, looked up): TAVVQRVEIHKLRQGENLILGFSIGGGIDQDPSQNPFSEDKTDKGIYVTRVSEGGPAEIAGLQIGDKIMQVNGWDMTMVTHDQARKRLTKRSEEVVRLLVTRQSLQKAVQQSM


Tests used:
Test in all cases: holdup assay
Parameters in all cases: key: below the threshold = too weak to quantify, mostly under pKd 3.1 to 4
Details in all cases: plain residues with an end cap or a label only (N-terminal biotin on a linker: ado-ado)
CASK, O14936 = biological target: CASK, O14936
LNX2_2, Q8N448 = biological target: T1, LNX2_2, Q8N448
DLG1_2, Q12959 = biological target: DLG1_2, Q12959
MAGI2_4, Q86UL8 = biological target: MAGI2_4, Q86UL8
APBA1_2, Q02410 = biological target: T2, APBA1_2, Q02410
DLG3_2, Q92796 = biological target: T3, DLG3_2, Q92796
LAP2, Q96RT1 = biological target: LAP2, Q96RT1
SNTB1, Q13884 = biological target: T4, SNTB1, Q13884
LNX1_2, Q8TBB1 = biological target: LNX1_2, Q8TBB1
PICK1, Q9NRD5 = biological target: PICK1, Q9NRD5
ARHGEF12, Q9NZN5-2 = biological target: ARHGEF12, Q9NZN5-2
MPP2, Q14168 = biological target: T5, MPP2, Q14168
APBA1_1, Q02410 = biological target: T6, APBA1_1, Q02410
MAGI3_2, Q5TCQ9 = biological target: MAGI3_2, Q5TCQ9
GRIP1_2, Q9Y3R0 = biological target: T7, GRIP1_2, Q9Y3R0
DLG2_2, Q15700 = biological target: DLG2_2, Q15700
PDZRN4_1, Q6ZMN7 = biological target: PDZRN4_1, Q6ZMN7
DLG3_1, Q92796 = biological target: T8, DLG3_1, Q92796
MPDZ_5, O75970 = biological target: T9, MPDZ_5, O75970
DLG4_3, P78352 = biological target: DLG4_3, P78352
RADIL, Q96JH8 = biological target: T10, RADIL, Q96JH8
APBA3_1, O96018 = biological target: T11, APBA3_1, O96018
Inadl_10, Q8NI35 = biological target: Inadl_10, Q8NI35
TJP2_1, Q9UDY2 = biological target: TJP2_1, Q9UDY2
TX1BP3, O14907 = biological target: T12, TX1BP3, O14907
TJP1_2, Q07157 = biological target: TJP1_2, Q07157
Sequence of TJP1_2, Q07157 (Q07157 181-274): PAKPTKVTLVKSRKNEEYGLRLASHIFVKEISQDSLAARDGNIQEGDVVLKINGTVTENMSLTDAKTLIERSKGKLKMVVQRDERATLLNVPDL

Sequence of MAGI2_4, Q86UL8 (Q86UL8 772-865): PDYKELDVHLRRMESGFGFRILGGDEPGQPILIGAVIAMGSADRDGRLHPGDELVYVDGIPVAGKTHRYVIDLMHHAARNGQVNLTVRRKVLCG
Sequence of PICK1, Q9NRD5 (Q9NRD5 17-115): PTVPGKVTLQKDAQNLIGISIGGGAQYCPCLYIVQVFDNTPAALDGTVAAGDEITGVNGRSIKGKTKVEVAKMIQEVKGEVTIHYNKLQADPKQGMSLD
Sequence of CASK, O14936 (O14936 487-570): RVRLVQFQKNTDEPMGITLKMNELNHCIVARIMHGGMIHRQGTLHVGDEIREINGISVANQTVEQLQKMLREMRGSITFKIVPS
Sequence of LNX1_2, Q8TBB1 (Q8TBB1 371-470): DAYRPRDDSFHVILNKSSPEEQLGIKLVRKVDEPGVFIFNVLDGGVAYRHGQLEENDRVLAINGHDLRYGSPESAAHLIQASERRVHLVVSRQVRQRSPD
Sequence of TJP2_1, Q9UDY2 (Q9UDY2 24-128): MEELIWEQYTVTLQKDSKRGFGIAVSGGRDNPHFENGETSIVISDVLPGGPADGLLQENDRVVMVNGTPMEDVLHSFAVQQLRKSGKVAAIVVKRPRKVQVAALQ
Sequence of PDZRN4_1, Q6ZMN7 (Q6ZMN7 213-318): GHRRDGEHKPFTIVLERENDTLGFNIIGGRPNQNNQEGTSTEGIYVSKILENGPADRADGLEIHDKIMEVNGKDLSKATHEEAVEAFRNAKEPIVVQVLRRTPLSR
Sequence of DLG1_2, Q12959 (Q12959 314-412): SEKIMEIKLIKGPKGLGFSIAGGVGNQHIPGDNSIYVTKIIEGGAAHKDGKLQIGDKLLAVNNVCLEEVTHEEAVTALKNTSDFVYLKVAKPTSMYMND
Sequence of ARHGEF12, Q9NZN5-2 (Q9NZN5 other isoform, or with tags, fused parts or gaps): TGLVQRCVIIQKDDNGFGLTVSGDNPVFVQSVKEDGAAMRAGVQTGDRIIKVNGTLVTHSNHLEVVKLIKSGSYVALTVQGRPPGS
Sequence of DLG2_2, Q15700 (Q15700 189-283): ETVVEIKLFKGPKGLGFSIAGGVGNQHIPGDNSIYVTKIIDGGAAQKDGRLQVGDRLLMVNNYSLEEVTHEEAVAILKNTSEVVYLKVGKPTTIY
Sequence of Inadl_10, Q8NI35 (Q8NI35 1673-1763): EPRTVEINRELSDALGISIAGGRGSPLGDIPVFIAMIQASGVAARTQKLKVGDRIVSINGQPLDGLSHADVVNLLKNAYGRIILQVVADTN
Sequence of LAP2, Q96RT1 (Q96RT1 other isoform, or with tags, fused parts or gaps): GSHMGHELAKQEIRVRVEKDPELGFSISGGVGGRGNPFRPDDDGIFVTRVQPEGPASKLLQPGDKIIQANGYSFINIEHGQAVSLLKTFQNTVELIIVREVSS
Sequence of MAGI3_2, Q5TCQ9 (Q5TCQ9 398-503): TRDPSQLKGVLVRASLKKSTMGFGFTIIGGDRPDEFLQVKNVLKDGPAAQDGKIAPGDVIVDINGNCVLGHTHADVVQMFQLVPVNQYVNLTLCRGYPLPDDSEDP
Sequence of DLG4_3, P78352 (P78352 306-403): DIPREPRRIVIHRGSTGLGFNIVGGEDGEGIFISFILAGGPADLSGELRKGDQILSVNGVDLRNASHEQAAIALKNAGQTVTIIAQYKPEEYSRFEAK

| Binder | pKd (CASK, O14936) | pKd (LNX2_2, Q8N448) | pKd (DLG1_2, Q12959) | pKd (MAGI2_4, Q86UL8) | pKd (APBA1_2, Q02410) | pKd (DLG3_2, Q92796) | pKd (LAP2, Q96RT1) | pKd (SNTB1, Q13884) | pKd (LNX1_2, Q8TBB1) | pKd (PICK1, Q9NRD5) | pKd (ARHGEF12, Q9NZN5-2) | pKd (MPP2, Q14168) | pKd (APBA1_1, Q02410) | pKd (MAGI3_2, Q5TCQ9) | pKd (GRIP1_2, Q9Y3R0) | pKd (DLG2_2, Q15700) | pKd (PDZRN4_1, Q6ZMN7) | pKd (DLG3_1, Q92796) | pKd (MPDZ_5, O75970) | pKd (DLG4_3, P78352) | further results |
| --- | --- | --- | --- | --- | --- | --- | --- | --- | --- | --- | --- | --- | --- | --- | --- | --- | --- | --- | --- | --- | --- |
| SRPHTNETSL [MCC, P23508] | below the threshold | below the threshold | 4.19 | below the threshold | 3.59 | 3.72 | below the threshold | 4.67 | below the threshold | below the threshold | 4.68 | below the threshold | below the threshold | 4.09 | below the threshold | below the threshold | 5.22 | below the threshold | below the threshold | 3.95 | pKd (RADIL, Q96JH8): below the threshold; pKd (APBA3_1, O96018): below the threshold; pKd (Inadl_10, Q8NI35): below the threshold; pKd (TJP2_1, Q9UDY2): below the threshold; pKd (TX1BP3, O14907): 4.12; pKd (TJP1_2, Q07157): below the threshold |
| PSVYSRSQYV [CLDN8, P56748] | below the threshold | 4.66 | 3.86 | 3.62 | 3.92 | 3.74 | below the threshold | below the threshold | 3.7 | below the threshold | 4.19 | below the threshold | below the threshold | 3.52 | below the threshold | below the threshold | below the threshold | below the threshold | 4.18 | below the threshold | pKd (RADIL, Q96JH8): 5.17; pKd (APBA3_1, O96018): below the threshold; pKd (Inadl_10, Q8NI35): below the threshold; pKd (TJP2_1, Q9UDY2): 4.87; pKd (TX1BP3, O14907): below the threshold; pKd (TJP1_2, Q07157): below the threshold |
| GSQSQVETEA [FKBP4, Q02790] | below the threshold | below the threshold | below the threshold | below the threshold | below the threshold | 4.2 | below the threshold | below the threshold | below the threshold | below the threshold | below the threshold | below the threshold | below the threshold | below the threshold | below the threshold | below the threshold | below the threshold | below the threshold | below the threshold | below the threshold | pKd (RADIL, Q96JH8): below the threshold; pKd (APBA3_1, O96018): below the threshold; pKd (Inadl_10, Q8NI35): below the threshold; pKd (TJP2_1, Q9UDY2): below the threshold; pKd (TX1BP3, O14907): below the threshold; pKd (TJP1_2, Q07157): below the threshold |

Further lines, with some results ahead:

| pKd (CASK, O14936) | pKd (LNX2_2, Q8N448) | pKd (DLG1_2, Q12959) | pKd (MAGI2_4, Q86UL8) | pKd (APBA1_2, Q02410) | pKd (DLG3_2, Q92796) | pKd (LAP2, Q96RT1) | pKd (SNTB1, Q13884) | pKd (LNX1_2, Q8TBB1) | pKd (PICK1, Q9NRD5) | pKd (ARHGEF12, Q9NZN5-2) | pKd (MPP2, Q14168) | pKd (APBA1_1, Q02410) | pKd (MAGI3_2, Q5TCQ9) | pKd (GRIP1_2, Q9Y3R0) | pKd (DLG2_2, Q15700) | pKd (PDZRN4_1, Q6ZMN7) | pKd (DLG3_1, Q92796) | pKd (MPDZ_5, O75970) | pKd (DLG4_3, P78352) | Binder | further results |
| --- | --- | --- | --- | --- | --- | --- | --- | --- | --- | --- | --- | --- | --- | --- | --- | --- | --- | --- | --- | --- | --- |
| below the threshold | below the threshold | below the threshold | below the threshold | below the threshold | 4.06 | below the threshold | below the threshold | below the threshold | below the threshold | below the threshold | below the threshold | below the threshold | below the threshold | below the threshold | below the threshold | below the threshold | below the threshold | below the threshold | below the threshold | QLGSPTADLA [SIPA1, Q96FS4] | pKd (RADIL, Q96JH8): below the threshold; pKd (APBA3_1, O96018): below the threshold; pKd (Inadl_10, Q8NI35): below the threshold; pKd (TJP2_1, Q9UDY2): below the threshold; pKd (TX1BP3, O14907): below the threshold; pKd (TJP1_2, Q07157): below the threshold |
| below the threshold | below the threshold | 3.95 | below the threshold | 3.73 | 4.19 | 3.62 | below the threshold | below the threshold | below the threshold | below the threshold | 4.36 | 3.65 | 4.41 | below the threshold | below the threshold | below the threshold | below the threshold | 4.66 | below the threshold | GDSSRKEYFI [GYPC, P04921] | pKd (RADIL, Q96JH8): 4.43; pKd (APBA3_1, O96018): below the threshold; pKd (Inadl_10, Q8NI35): below the threshold; pKd (TJP2_1, Q9UDY2): below the threshold; pKd (TX1BP3, O14907): below the threshold; pKd (TJP1_2, Q07157): below the threshold |
